B1: MEILB2 C-terminus (a.a. 87–338) (domain or fragment, mouse, UniProt Q9D4G2 87-338, looked up)
chain: ARLETAQADSGREKKEKLALRQQLNEAKQQLLQQAEYCTQMGAVTCTLLWGVSSSEEVVKTILGGDKALKFFNITGQTMESFVKSLDGDVKEVDSDENQFVFALAGIVTNVAAIACGREFLVNSSRVLLDTMLQLLGDLKPGQCTKLKVLMLMSLYNVSINSKGLKYITESPGFIPLLWWLLSDPDAEVCLHTLRLIQSVVLEPDVFSKVASELQSSLPLQRILAMSKSRNSHLQSAAQELLEDLRALDCNV
notes: MEILB2/HSF2BP, mouse, a.a; 87-338 (27.9 kDa in theory); pET-Duet for the co-expression, pSmt3 for the protein alone; also called mMEILB2 a.a; 87–338; source: E. coli BL21(DE3), purified (Ni-NTA, Ulp1 cleavage, cation exchange, size-exclusion chromatography); expressed alone or co-expressed with BRCA2 (a.a. 2219–2285); not shown: 10x His-Smt3, N-terminal, cleaved
B2: BRCA2-MBD fragment (a.a. 2219–2285) (domain or fragment, mouse, UniProt P97929 2219-2285, looked up)
chain: KRGGVTVDAVGQPPIKRSLLNEFDRIIESKGKSLTPSKSTPDGTVKDRSLFTHHMSLEPVTCGPFCS
notes: BRCA2, mouse, a.a; 2219-2285 (7.4 kDa in theory by the text); the His-Smt3 tag holds for the protein expressed alone (pSmt3); in the co-expression (pET-Duet) BRCA2 was untagged; also called mBRCA2 a.a; 2219–2285; source: E. coli BL21(DE3), purified (Ni-NTA, Ulp1 cleavage, size-exclusion chromatography, cation exchange); expressed alone or co-expressed untagged with His-Smt3-MEILB2 (a.a. 87–338)
B3: MEILB2 α1 (a.a. 18–55; tag removed) (domain or fragment, mouse, UniProt Q9D4G2 18-55, looked up)
chain: MESKEEFVKVRKKDLERLTTEVMQIRDFLPRILNGELL
notes: MEILB2/HSF2BP, mouse, α1, a.a; 18-55; source: E. coli BL21 (DE3), purified (Ni-NTA, amylose, ion exchange, TEV cleavage, size-exclusion chromatography); not shown: MBP, N-terminal, cleaved

What was measured:
[1] = target: MEILB2 α1 (a.a. 18–55; tag removed) (mouse) (UniProt Q9D4G2); test: SEC-MALS; Superdex 200 Increase 10/300 GL; 20 mM Tris (pH 8.0), 150 mM KCl, 2 mM DTT; samples at >1 mg/ml; MEILB2 fragments alone or as purified complexes with BRME1-MBD
[2] = target: MEILB2 α1+2 (tag removed) (mouse); test: as above
[3] = target: the molecule itself; test: SEC-MALS; individual proteins; 500 µg on Superdex 200 10/300 at 0.5 ml/min
[4] = target: the molecule itself; test: SEC-MALS; purified MEILB2 (a.a. 87–338)-BRCA2 (a.a. 2219–2285) heterocomplex; 500 µg on Superdex 200 10/300 at 0.5 ml/min
[5] = target: T1, MEILB2 C-terminus (a.a. 87–338) (Mus musculus (Mouse), UniProt Q9D4G2); test: co-expression co-purification, SEC and SEC-MALS
T1 chain: B1 chain

[6] = target: B1; test: SEC-MALS; purified MEILB2 (a.a. 87–338)-BRCA2 (a.a. 2219–2285) heterocomplex; 500 µg on Superdex 200 10/300 at 0.5 ml/min; settings: both partners purified
[7] = target: the molecule itself; test: SEC-MALS; Superdex 200 Increase 10/300 GL; 20 mM Tris (pH 8.0), 150 mM KCl, 2 mM DTT; samples at >1 mg/ml; MEILB2 fragments alone or as purified complexes with BRME1-MBD

## BRME1-MBD (a.a. 519–600), recombinant, His-tagged (from UniProt Q6DIA7 519-600) (domain or fragment)
[1]
  stoichiometry N (BRME1-MBD per MEILB2 chain (2:2)): 1
[2]
  stoichiometry N (BRME1-MBD per MEILB2 chain (2:2)): 1

## B1
[3]
  stoichiometry N: 2 chains in the oligomer
[4]
  stoichiometry N: 4 chains in the oligomer

## B2
[5]
  binding result: binds
[6]
  stoichiometry N: ~0.5 BRCA2 per MEILB2 chain (4:2 MEILB2:BRCA2)

## B3
[7]
  stoichiometry N: 4 chains in the oligomer
